Patent US9187762B2, “Compositions and methods comprising sequences having hydroxyphenylpyruvate dioxygenase (HPPD) activity” (PIONEER HI-BRED INTERNATIONAL, INC., priority 2010, dated 2015)
Substitutions are numbered along the chain they refer to.

B1: GE010082: Glycine max variant HPPD with maize motif substitutions, SEQ ID NO: 458 (protein)
chain: MPIPMCNEIQAQAQAQAQAQPGFKLVGFKNFVRTNPKSDRFQVNRFHHIEFWCTDATNASRRFSWGLGMPIVAKSDLSTGNQIHASYLLRSGDLSFLFSAPYSPSLSAGSSAASSASIPSFDAATCLAFAAKHGFGVRAIALEVADAEAAFSASVAKGAEPASPPVLVDDRTGFAEVRLYGDVVLRYVSYKDAAPQAPHADPSRWFLPGFEAAASSSSFPELDYGIRRLDHAVGNVPELAPAVAYMAGFSGFHEFAEFTAEDVGTSESGLNSMALANNSETVLLPLNEPVYGTKRKSQIETYLEHNEGAGVQHLALVTHDIFTTLREMRKRSFLGGFEFMPSPPPTYYANLHNCAADVLTVDQIKQCEELGIMVDRDDQGTLLQIFTKPVGDRPTIFIEIIQRIGCMVEDEEGKVYQKGACGGFGKGNFGELFKSIEEYEKTLEAKRTAGLTVNS
modifications: HPPD variant
B2: SEQ ID NO: 394 (protein)
chain: MPPTPTTAAATGAAVAAASAEQAAFRLVGHRNFVRVNPRSDRFHTLAFHHVELWCADAASAAGRFSFGLGAPLAARSDLSTGNTAHASLLLRSGALAFLFTAPYAHGADAATASLPSFSAAEARRFAADHGLAVRAVALRVADAEDAFRASVAAGARPAFEPVELGLGFRLAEVELYGDVVLRYVSYPDDADASFLPGFVGVTSPGAADYGLRRFDHIVGNVPELAPAAAYFAGFTGFHEFAEFTAEDVGTTESGLNSMVLANNAENVLLPLNEPVHGTKRRSQIQTYLDHHGGPGVQHMALASDDVLRTLREMQARSAMGGFEFMAPPAPEYYDGVRRRAGDVLTEAQIKECQELGVLVDRDDQGVLLQIFTKPVGDRPTLFLEIIQRIGCMEKDEKGQEYQKGGCGGFGKGNFSQLFKSIEDYEKSLEAKQAAAAQGS
modifications: Sorghum bicolor
B3: GE010083 (protein)
chain: B2 chain with F232M, V260A, M300I, M326L, A327P, A330L, P331S, R340C, L359M, S416G
modifications: HPPD variant
B4: SEQ ID NO: 2 (protein)
chain: MAIPMCNEIQAQAQAQAQAQPGFKLVGFKNFVRTNPKSDRFQVNRFHHIEFWCTDATNASRRFSWGLGMPIVAKSDLSTGNQIHASYLLRSGDLSFLFSAPYSPSLSAGSSAASSASIPSFDAATCLAFAAKHGFGVRAIALEVADAEAAFSASVAKGAEPASPPVLVDDRTGFAEVRLYGDVVLRYVSYKDAAPQAPHADPSRWFLPGFEAAASSSSFPELDYGIRRLDHAVGNVPELAPAVRYLKGFSGFHEFAEFTAEDVGTSESGLNSVVLANNSETVLLPLNEPVYGTKRKSQIETYLEHNEGAGVQHLALVTHDIFTTLREMRKRSFLGGFEFMPSPPPTYYANLHNRAADVLTVDQIKQCEELGILVDRDDQGTLLQIFTKPVGDRPTIFIEIIQRIGCMVEDEEGKVYQKGACGGFGKGNFSELFKSIEEYEKTLEAKRTA
modifications: Glycine max

How the values were obtained:
[1] = system: G. max HPPD; test: ON/OFF rate ratio insensitivity parameters of HPPD with maize motif substitutions; type: biochemical, Glycine max; conditions: for OFF ratio / ON ratio / ON × OFF Fold vs wt / ON × OFF Value: soy HPPD
Method: (§1) [formula] Higher KD (reduced affinity or increased insensitivity) can be attained with a numerically smaller ON rate, a larger OFF rate or both. […] The ratio of the reaction rate with inhibitor to that without inhibitor during the 70 to 90 second interval of the reaction was termed the “ON rate ratio”. […] Incubations with the same concentrations of enzyme but no mesotrione were done in parallel. After 1 hr at room temperature, 5 to 10 ul of the enzyme-inhibitor complex was dispensed into the wells of the assay plate. Reactions were started with the addition of 290 to 295 ul of 25 mM Hepes, pH 7, 2 mM ascorbate, 10 uM FeSO4, 100 uM HPP and 50 nM HGD. The reactions were monitored at 320 nm for 12 min. Reaction velocity accelerates as inhibitor is released from the enzyme until a steady state is reached, during which the reaction velocity is constant. The ratio of the steady state rate in mixtures containing mesotrione (or other herbicidal inhibitor) to the initial velocity of mixtures lacking inhibitor is termed the “OFF rate ratio”. Another parameter to record is the time span required for the reactions with inhibitor to reach the steady state. […] It is not certain that the steady state attained in the OFF rate reactions actually represents an equilibrium where OFF rates are now equal to ON rates. Because substrate and inhibitors bind in the same site, the high concentration of substrate present may competitively trap the inhibitor and prevent it from binding again. To be sure that improvement in ON rates is being taken into account, the ON and OFF rate ratios were multiplied together and the product is termed the “insensitivity parameter”.

[2] = system: soybean HPPD; test: HPPD activity, coupled assay with HGD; substrate saturation kinetics (KM, kcat); type: biochemical; conditions: soy HPPD, wt and improved
Description: HPPD catalyzes the conversion of 4-hydroxyphenylpyruvate (HPP) to homogentisate. See, FIG. 1. […] However, the product of the ensuing reaction in tyrosine metabolism, maleylacetoacetate, absorbs strongly at 320 nm. Furthermore, the enzyme catalyzing that reaction is also a dioxygenase having similar mechanism and buffer requirements as HPPD, making homogentisate dioxygenase (HGD) an ideal partner in a coupled assay, as shown.
The HDG gene from Pseudomonas aeruginosa (Amaya (2004) Arch Biochem Biophys 421, 135-142) was cloned into pVER7062 and electroporated into E. coli strain BL21(DE3). The enzyme was produced by methods similar to those described for HPPD. The purified enzyme has a KM for homogentisate of 23 uM and a kcat of 100/sec, properties highly suited for instantly converting the homogentisate produced by HPPD to maleylacetoacetate.
(§2) HPPD activity was measured by placing an aliquot (e.g., 6 ul) of the substrate HPP at 50-fold the desired final concentration into the wells of a low UV-absorbing assay plate. Reactions were started by adding a mixture (e.g., 294 ul) containing 25 mM Hepes, pH 7, 2 mM ascorbate, 10 uM FeSO4, 1 to 100 uM HPP, 50 nM HGD and 5 to 240 nM HPPD. Absorbance at 320 nm was monitored continuously in a plate-reading spectrophotometer (Spectramax, Molecular Devices).
(§3) The catalytic performance of wild-type HPPD and variants generated by shuffling was assessed by determining the substrate saturation parameters. The Michaelis-Menten kinetics protocol of the Spectramax software was customized for HPP concentrations ranging from 3.33 uM to 100 uM, or up to 1 mM if required. Reaction rates were measured as described above for each concentration of HPP. The software returns values of KM and Vmax using the Lineweaver-Burke transformation of the Michaelis-Menten equation.
(§4) The amino acid substitutions identified during the shuffling and mutagenesis of the maize HPPD gene can be made at analogous positions in other HPPD proteins to improve their insensitivity toward HPPD-inhibiting herbicides. The sequences of native and improved maize HPPD were aligned with those of sorghum (Genbank accession number XP002453359) and soybean (Genbank accession number ABQ96868), and the motif substitutions were designed accordingly, as shown in FIG. 14. The genes designed for improvement were synthesized commercially, inserted into vector pVER7062 and expressed, purified and evaluated as in Example 1.

[3] = system: S. bicolor HPPD; test: ON/OFF rate ratio insensitivity parameters of HPPD with maize motif substitutions; type: biochemical, Sorghum bicolor; conditions: sorghum HPPD
Method: as §1

[4] = system: S. bicolor HPPD; test: HPPD activity, coupled assay with HGD; substrate saturation kinetics; type: biochemical, Sorghum bicolor; conditions: sorghum HPPD, wt and improved
Method: as §2, §3, §4

Molecule	OFF ratio ([1]; Mesotrione)	ON ratio ([1]; Mesotrione)	ON × OFF Value ([1]; Mesotrione)	OFF ratio ([1]; Tembotrione)	ON ratio ([1]; Tembotrione)	ON × OFF Value ([1]; Tembotrione)	Km [2]	kcat [2]	OFF ratio ([3]; Mesotrione)	ON ratio ([3]; Mesotrione)	ON × OFF Value ([3]; Mesotrione)	OFF ratio ([3]; Tembotrione)	ON ratio ([3]; Tembotrione)	ON × OFF Value ([3]; Tembotrione)	Km [4]	kcat [4]	also measured
B1	0.219	0.444	0.097	0.070	0.321	0.0224	14 µM	13	–	–	–	–	–	–	–	–	ON × OFF Fold vs wt ([1]; Mesotrione): 2.41; ON × OFF Fold vs wt ([1]; Tembotrione): 5.10; improvement of insensitivity vs native protein ([1]; mesotrione): 2.41 fold; improvement of insensitivity vs native protein ([1]; tembotrione): 5.10 fold
B2	–	–	–	–	–	–	–	–	0.199	0.227	0.045	0.032	0.210	0.0067	4.9 µM	246	–
B3	–	–	–	–	–	–	–	–	0.436	0.634	0.277	0.071	0.730	0.0517	5.35 µM	87	ON × OFF Fold vs wt ([3]; Mesotrione): 6.13; ON × OFF Fold vs wt ([3]; Tembotrione): 7.71
B4	0.135	0.299	0.040	0.044	0.102	0.0044	2 µM	83	–	–	–	–	–	–	–	–	–
